The text below walks through data of patent US20170022281A1 (AbbVie / Abbott, published 2017).

What is called EC50 is the concentration needed to bring the measured effect to its halfway point. Lower therefore signals an effect from little substance.

Test [1] deals with cyno PRLR on Baf3-cyPRLR cells (cyno). Put plainly: cell-based or functional assay.
For test [2], the target named is T1, cyno PRLR ECD-his6 protein (cyno).
T1 chain: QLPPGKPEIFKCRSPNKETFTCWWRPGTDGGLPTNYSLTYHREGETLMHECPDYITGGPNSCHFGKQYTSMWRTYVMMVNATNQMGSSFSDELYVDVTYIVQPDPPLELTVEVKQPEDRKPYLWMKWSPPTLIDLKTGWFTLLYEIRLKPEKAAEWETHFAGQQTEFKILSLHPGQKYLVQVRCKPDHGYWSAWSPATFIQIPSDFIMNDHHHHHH
In words: ELISA on ECD. The method in brief: (§1)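 PRLR was captured on blocked plates for 1 h, then incubated 1 h with serial antibody dilutions in PBS pH 7.4/0.05% Tween 20 containing 10% Superblock. HRP secondary and TMB gave signal read at 450 nm, and EC50 came from curve fitting.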
In general terms: ELISA stands for enzyme-linked immunosorbent assay.

In test [3] the target is T2, human PRLR ECD-Fc fusion protein (human, UniProt P16471 25-233).
T2 construct: not shown: Fc region (captured by goat anti-human Fc)
T2 sequence: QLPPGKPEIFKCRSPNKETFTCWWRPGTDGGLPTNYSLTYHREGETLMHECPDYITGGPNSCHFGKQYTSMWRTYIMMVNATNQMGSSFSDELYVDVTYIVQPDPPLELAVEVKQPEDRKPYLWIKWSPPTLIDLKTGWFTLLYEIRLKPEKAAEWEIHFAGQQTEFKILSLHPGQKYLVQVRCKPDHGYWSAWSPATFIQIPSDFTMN
In words: ELISA on ECD. A digest of the protocol: as §1

The target of test [4] is T3, human PRLR (Biacore antigen) (human, UniProt P16471 25-234, limits assumed).
T3 construct: The construct injected over captured antibody is not described (a soluble form is likely); also called huPRLR
T3 sequence: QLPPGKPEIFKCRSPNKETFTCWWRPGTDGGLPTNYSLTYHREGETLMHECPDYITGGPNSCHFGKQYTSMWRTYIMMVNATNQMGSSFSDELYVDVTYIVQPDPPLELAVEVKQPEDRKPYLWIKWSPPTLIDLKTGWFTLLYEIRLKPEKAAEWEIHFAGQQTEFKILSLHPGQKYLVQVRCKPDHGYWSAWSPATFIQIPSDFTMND
Put plainly: SPR simultaneous binding; PRLR held by surface mAb chAb7. Here is the method: (§2) Running buffer was HBS-EP+ (10 mM Hepes, pH7.4, 150 mM NaCl, 3 mM EDTA, 0.05% surfactant). Assay was performed at 12° C. using Biacore T200 and CM5 sensor chips with anti-human IgG (Pierce) amine-coupled in all 4 flow cells to ˜2000 RU.
(§3) Separate test mAbs were captured in flowcells 2, 3 & 4 (flowcell 1 was reference, no test mAb). All 4 flowcells were then blocked by injection with isotype control mAb at 50 ug/ml. All 4 flowcells were then injected with antigen or buffer only (buffer only is for double referencing, done for each mAb pair individually). All 4 flowcells were then injected with 2nd test mAb at 10 ug/ml. All 4 flowcells were then regenerated with glycine, pH1.5.

Test [5] has as its target T3, human PRLR (Biacore antigen). In words: SPR simultaneous binding; PRLR held by surface mAb Ab39. Here is the method:
as §2, §3

For test [6] the target is unchanged. Put plainly: SPR simultaneous binding; PRLR held by surface mAb chAb5. Here is the method:
as §2, §3

Test [7] shares this target. Put plainly: SPR simultaneous binding; PRLR held by surface mAb Ab48. Here is the method: as §2, §3
The target is the same in test [8]. In words: SPR simultaneous binding; PRLR held by surface mAb Ab19. As for the experimental part: as §2, §3
The target is the same in test [9]. Put plainly: SPR simultaneous binding; PRLR held by surface mAb chAb8. As for the experimental part: as §2, §3
Test [10] shares this target. Put plainly: SPR simultaneous binding; PRLR held by surface mAb Ab40. As for the experimental part: as §2, §3
Test [11] has the same target. In words: SPR simultaneous binding; PRLR held by surface mAb LFA102. Here is the method:
as §2, §3

The target is the same in test [12]. In words: SPR simultaneous binding; PRLR held by surface mAb Ab30. As for the experimental part:
as §2, §3

Test [13] shares this target. In words: SPR simultaneous binding; PRLR held by surface mAb Ab21. As for the experimental part:
as §2, §3

B1: Ab12 (antibody, V domains shown)
VH: DVQLQESGPGLVKPSQSLSLTCTVTGYSITSDYAWNWIRQFPGNKLEWMGYIGYSGRTSFNPSLKSRISITRDTSKNQFFLQLNSVTTEDTATYYCARGGFAMDYWGQGTSVTVSS
VL: QIVLTQSPGIMSASPGEKVTMTCSASSSVTYMYWYQQKPRSSPKPWIYLTSNLASGVPARFSGSGSGTSYSLTISSMEAEDGATYYCQQWSSTPPLTFGGGTKLELN
notes: murine monoclonal, isotype G2a; reported as PRLR agonist; also called murine Ab12
On to B1, for which the “Baf3-cyPRLR proliferation IC50” value in test [1] is over 30 µg/mL. Further, the values for the EC50 in test [2] and in test [3] were under 4000 pM and 69 pM, respectively.

B2: Ab39 (antibody, human IgG1, kappa, V domains shown)
VH: EVQLVQSGAEVKKPGSSVKVSCKASGYTFTSYWIHWVRQAPGQGLEWIGEIDPSDSYTNYNQKFKGRATLTVDKSSSTAYMELSSLRSEDTAVYYCARSFFTNWFAYWGQGTLVTVSS
VL: DVVMTQTPLSLSVTPGQPASISCRSSQSLVHSNGNTYLHWYLQKPGQSPQLLIYKVSNRFSGVPDRFSGSGSGTDFTLKISRVEAEDVGVYFCSQSTHVPFTFGGGTKVEIKR
notes: humanized from Ab7; G1; also called Ab4 HC.1a and Ab4 LC.1a
With B2, in test [1], the “Baf3-cyPRLR proliferation IC50” value is 0.25 µg/mL. The “solution mAb binding, % of PRLR binding” value is 1% in test [4]; -2% in [5]; 0% in test [6]; 2% in test [7]; -1% in [8]; 1% in test [9]. The “solution mAb binding, % of PRLR binding” value in test [10] is -2%; in test [11], 92%; in [12] it was 0%; in test [13] it was -1%. In addition, the EC50 turned out to be 460 pM in [2] and 180 pM in test [3].

B3: Ab30 (antibody, human IgG1, kappa, V domains shown)
VH: EVQLVQSGAEVKKPGSSVKVSCKASGYTFTSFWMHWVRQAPGQGLEWIGVIDPSDTYTNYNQKFKGRATLTVDESSSTAYMELSSLRSEDTAVYYCARGDYSNWFTYWGQGTLVTVSS
VL: DVVMTQTPLSLSVTPGQPASISCRSSQRLVHSNGNTYLHWYLQKPGQSPQLLIYKVSNRFSGVPDRFSGSGSGTDFTLKISRVEAEDVGVYFCSQSTHVPWTFGGGTKVEIKR
notes: humanized from Ab5; G1; also called Ab2 HC.1a and Ab2 LC.1a
With B3, the “Baf3-cyPRLR proliferation IC50” value in [1] is 0.24 µg/mL. The “solution mAb binding, % of PRLR binding” value in test [4] was 0%; in test [5], -2%; in [6], 0%; in [7] it was 6%; in [8], -1%; in [9], 6%. Besides, the “solution mAb binding, % of PRLR binding” value was -2% in test [10], 103% in test [11], -1% in test [12] and -1% in test [13]. The results for the EC50 in test [2] and in test [3] were 100 pM and 220 pM, respectively.

B4: Ab5 (antibody, V domains shown)
VH: QVQLQQPGAELVRPGTSVKLSCKASGYTFTSFWMHWVKQRPGQGLEWIGVIDPSDTYTNYNQKFKGKATLTVDTSSSTAYMQLSSLTSEDSAVYYCARGDYSNWFTYWGQGTLVTVSA
VL: DVVMTQTPLSLPVSLGDQASISCRSSQRLVHSNGNTYLHWYLQKPGQSPKLLIYKVSNRFSGVPDRFSGSGSGTDFTLKISRVEAEDLGVYFCSQSTHVPWTFGGGTKLEIK
notes: murine monoclonal, isotype G2a; also called murine Ab5
Take B4: the “Baf3-cyPRLR proliferation IC50” value in test [1] was 0.38 µg/mL. The concentration giving a half-maximal response (EC50) was 95 pM in test [2] and 71 pM in [3].

B5: Ab11 (antibody, V domains shown)
VH: EVKLVESGGGLVQPGGSLKLSCAASGFTFSDYYMFWVRQTPEKSLEWVAYISNGGGSTYYPDTVKGRFTISRDNAKNTLYLQMSRLKSEDTAMYYCSRQLFYYGSRGAMGYWGQGTSVTVSS
VL: DVLMTQTPLSLPVSLGDQASISCRSSQSIVHSNGNTYLEWYLQKPGQSPKLLIYKVSNRFSGVPDRFSGSGSGTDFTLKISRVEAEDLGVYYCFQGSHVPFTFGSGTKLEIK
notes: murine monoclonal, isotype G1; also called murine Ab11
For the molecule B5, in [1], the “Baf3-cyPRLR proliferation IC50” value amounted to 1.2 µg/mL. The results for the concentration giving a half-maximal response (EC50) in test [2] and in test [3] were 153 pM and 93 pM, respectively.

B6: Ab7 (antibody, V domains shown)
VH: QVQLQQPGAELVMPGTSVKLSCKASGYTFTSYWIHWVKQRPGQGLEWIGEIDPSDSYTNYNQKFKGKATLTVDRSSSTAYMQLSSLTSEDSAVYYCGRSFFTNWFAYWGQGTLVTVSA
VL: DVVMTQTPLSLPVSLGDQASISCRSSQSLVHSNGNTYLHWYLQKPGQSPKLLIYKVSNRFSGVPDRFSGSGSGTDFTLKINRVEAEDLGVYFCSQSTHVPFTFGSGTKLEIK
notes: murine monoclonal, isotype G1; also called murine Ab7
Take B6: the “Baf3-cyPRLR proliferation IC50” value in [1] amounted to 0.3 µg/mL. Moreover, the EC50 in [2] amounted to 202 pM; in [3], 98 pM.

B7: Ab13 (antibody, V domains shown)
VH: QVQLQQPGAELVRPGTSVKLSCKASGYTFTSFWMHWVKQRPGQGLEWIGVIDPSDSHTNYNQKFKGKATLTVNTSSSTAYMHLSSLTSEDSAVYYCARGDYSNWFTYWGQGTLVTVSA
VL: DVVMTQTPFSLPVSLGDQASISCRSSQSLVHSNGNTYLHWYLQKPGQSPKLLIYKVSNRFSGVPDRFSGSGSGTDFTLKISRVEAEDLELYFCSQSTHVPWTFGGGTKLEIK
notes: murine monoclonal, isotype G2a; also called murine Ab13
On to B7, for which the “Baf3-cyPRLR proliferation IC50” value in test [1] was 0.85 µg/mL. In addition, the EC50 in [2] is 143 pM; in test [3], 70 pM.

B8: Ab10 (antibody, V domains shown)
VH: EVQLHQSGPELVKPGASVKISCKASGYTFTDYNMHWMKQSHGKSLEWIGYFYPYNGGTGYNQEFKNKATLTVDISSSTAYMELRRLTSEDSAVYYCARGGWGIYYAMDYWGQGTSVTVSS
VL: DIQMTQSPASLSASVGETVTITCRASENIYSYLTWYQQKQGKSPQLLVYNAKTLAEGVPSRFSGSGSGTQFSLKINSLQPEDFGSYHCQHHSVTPLTFGAGTKLELK
notes: murine monoclonal, isotype G2a; also called murine Ab10
With B8, the “Baf3-cyPRLR proliferation IC50” value in test [1] is over 10 µg/mL. This molecule displayed an EC50 in test [3] of 147 pM.

B9: Ab6 (antibody, V domains shown)
VH: QVQLQQPGAELVMPGSSVKLSCKASGYTFTTYWMHWVKQRPGQGLEWIGEIDPSDSYSNYNQKFKDKATLTVDKSSSTAYMQLSSLTSEDSAVYYCARNGGLGPAWFSYWGQGTLVTVSA
VL: DIVMTQSQKFMSTTVGDRVSITCKASQYVGTAVAWYQQKPGQSPKLLIYSASNRYTGVPDRFTDSGSGTDFTLTISNLQSEDLADYFCQQYSSYPWTFGGGTKLEIK
notes: murine monoclonal, isotype G1; also called murine Ab6
As for B9, the “Baf3-cyPRLR proliferation IC50” value in [1] was determined as 0.44 µg/mL. This molecule gave an EC50 in test [3] of 86 pM.
